Measurements as given in doi:10.1101/2021.09.24.461649 (bioRxiv, 2021).

B1: EspC-Δ10 truncated mutant (domain or fragment)
chain: MMTENLTVQPERLGVLASHHDNAAVDASSGVEAAAGLGESVAITHGPYCSQFNDTLNVYLTAHNALGSSLHTAGVDLAKSLRIAAKIYSEADEA
B2: EspC-Δ5 truncated mutant (domain or fragment)
chain: MTENLTVQPERLGVLASHHDNAAVDASSGVEAAAGLGESVAITHGPYCSQFNDTLNVYLTAHNALGSSLHTAGVDLAKSLRIAAKIYSEADEAWRKAID
B3: EspC-Δ20 truncated mutant (domain or fragment)
chain: MMTENLTVQPERLGVLASHHDNAAVDASSGVEAAAGLGESVAITHGPYCSQFNDTLNVYLTAHNALGSSLHTAGVDLAKSLRIA
B4: EspC (ESX-1 secreted protein C), wild type (natural protein)
chain: MMTENLTVQPERLGVLASHHDNAAVDASSGVEAAAGLGESVAITHGPYCSQFNDTLNVYLTAHNALGSSLHTAGVDLAKSLRIAAKIYSEADEAWRKAIDGLFT

How the values were obtained:
[1] = target: the molecule itself; assay: SEC
[2] = target: EccA1 ATPase, wild type (M. tuberculosis H37Rv, UniProt P9WPH9 1-573); assay: SPR
Chain of EccA1 ATPase, wild type (P9WPH9 whole entry): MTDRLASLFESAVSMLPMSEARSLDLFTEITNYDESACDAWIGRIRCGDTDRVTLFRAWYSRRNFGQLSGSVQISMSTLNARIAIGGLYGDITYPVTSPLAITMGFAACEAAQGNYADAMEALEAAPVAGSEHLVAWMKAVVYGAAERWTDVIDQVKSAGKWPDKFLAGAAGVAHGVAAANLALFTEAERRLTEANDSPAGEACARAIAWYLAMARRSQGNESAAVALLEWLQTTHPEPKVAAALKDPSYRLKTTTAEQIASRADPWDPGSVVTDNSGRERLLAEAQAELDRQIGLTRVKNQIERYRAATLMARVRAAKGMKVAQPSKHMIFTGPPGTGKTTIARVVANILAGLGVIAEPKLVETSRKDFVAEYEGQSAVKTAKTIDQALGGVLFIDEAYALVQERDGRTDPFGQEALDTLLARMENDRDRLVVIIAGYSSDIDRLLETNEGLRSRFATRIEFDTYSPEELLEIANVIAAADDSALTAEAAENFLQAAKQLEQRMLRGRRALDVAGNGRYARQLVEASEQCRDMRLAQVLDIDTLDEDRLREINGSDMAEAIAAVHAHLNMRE

| Binder | stoichiometry N [1] | Kd [2] |
| --- | --- | --- |
| B1 | 6 | ~8.1 µM |
| B2 | 6 | ~6.7 µM |
| B3 | 6 | – |
| B4 | – | ~0.14 µM |
